Reference: article PMC7935746

What was measured:
[1] = target: His-tagged TriC transporter (Pseudomonas aeruginosa); assay: SEC
[2] = target: His-tagged TriC transporter (Pseudomonas aeruginosa); assay: cryo-EM structure

Row | Substance | stoichiometry N [1] | stoichiometry N [2]
1 | His-tagged TriC transporter (natural protein) | 3 | 3
2 | fused TriAB dimer (TriA and TriB on one polypeptide) | 1 | –
